The values that follow are results of earlier work, collected in PMC9927262.

Where two headings read alike, the source gives them in different places.

For orientation: Kd means the constant that tells how readily two partners part at equilibrium.

Data set [1] deals with Spike RBD RBD (SARS-CoV-2) (UniProt P0DTC2).
The target is the same in data set [2]. This is another data set of the same source.

As for bamlanivimab, the Kd in data set [1] is 3.5 nM.
On to etesevimab, for which the Kd in data set [2] is 4.1 nM.
